This passage reports Km results from patent publication EP0651783B1, “ALKALINE PHOSPHATASE ENZYME HAVING IMPROVED SPECIFIC ACTIVITY FOR USE IN INDICATOR REAGENTS” (ABBOTT LABORATORIES, priority 1992, dated 1994).

The data set deals with O=[N+]([O-])c1ccc(OP(=O)(O)O)cc1. The data set can be described thus: Alkaline phosphatase kinetic constants (substrate hydrolysis). The class given is biochemical, Escherichia coli. The following applies: other: Table 1; substrate not named, e.g. p-nitrophenyl phosphate.

Method: The analyses for specific activity and temperature stability were performed on highly purified protein material. In brief, the purification process involved the release of the periplasmic protein by the formation of spheroplasts, ammonium sulphate precipitation and chromatofocusing chromatography. […] Temperature stability was measured by monitoring the decay of enzyme activity at different temperatures.

The term Km denotes the concentration of substrate that gives half-maximal velocity. Take “E. coli alkaline phosphatase variant pMA116, Lys^328 > Arg / Val^99 > Ala (Escherichia coli K-12; K350R/V121A)”: the Km came out at 74 µM.
